Ends that are not written are not given here.

The text below walks through data of patent US9951111B2, “Type I interferon mimetics as therapeutics for cancer, viral infections, and multiple sclerosis” (priority 2011, dated 2018).

Data set [1] has as its system vesicular stomatitis virus (VSV). Format: cell-based.
Data set [2] relates to vaccinia virus. Format: in vivo, mice (C57BL/6). The note with it: i.n. infection; peptides 200 μg or murine IFNα1 2,000 U i.p. for six consecutive days; FIG. 12.
Data set [3] in a line: Body weight of mice under IFNα1 or lipo-peptide (FIG. 13). As to conditions: 5×10^3 U/mouse i.p. on alternate days (peptide 100 μg), day 11 difference p<0.05.
In data set [4] the test system is vaccinia virus. Format: cell-based.
In another data set the test system is EMC virus. Format: cell-based, encephalomyocarditis (EMC) virus.
Data set [5] has as its system experimental allergic encephalomyelitis (EAE) in SJL/J mice. Put plainly: Relapsing/remitting EAE in SJL/J mice immunized with MBP. Format: in vivo. The note with it: 15 μg/mouse i.p. every other day from day 12 post-immunization with MBP; FIG. 6C.
Data set [6] can be described thus: IFN toxicity in vivo: body weight (FIG. 7). The note with it: 2,000 U per mouse of IFN mimetic I.P. on alternate days.
In another data set the test system is lymphocytes. Description: IFN toxicity in vivo: lymphocyte count on blood smears (Table 4). The note with it: day 11, i.p. alternate days for ten days, IFN mimetics 2 × 10^3 U in 200 μg per mouse, IFNβ 10^3 U/mouse; for % Reduction (lymphocytes): versus PBS.

Regarding “lipo-IFNτ(156-195) (EKGYSDCAWEIVRVEMMRALTSSTTLQKRLTKTGGDLNSP; also: lipid attached)”, the “antiviral activity against vesicular stomatitis virus (VSV)” value (from here on “antiviral activity … (VSV)”) in data set [1] is “showed antiviral activity”.
With “lipo-IFNα1(152-189) (LYLTEKKYSPCAWEVVRAEIMRSLSLSTNLQERLRRKE; also: lipid attached; listed as Homo sapiens)”, the “antiviral activity … (VSV)” value in data set [1] was “showed antiviral activity”. Also, in the data set on vaccinia virus [2], the “protection against vaccinia virus lethal infection (survival)” value was “inhibited vaccinia virus lethal infection of mice”. The weight loss result in data set [3] is recorded as “not seen”.
With “lipo-IFNβ(150-187) (ILHYLKAKEYSHCAWTIVRVEILRNFYFINRLTGYLRN; also: lipidated; UniProt P01574 150-187, looked up, fragment)”, the “antiviral activity … (VSV)” value in data set [1] is recorded as “showed antiviral activity”.

B1: IFNα1 (protein, UniProt P01562 24-189, looked up)
Interferon alpha-1/13: CDLPETHSLDNRRTLMLLAQMSRISPSSCLMDRHDFGFPQEEFDGNQFQKAPAISVLHELIQQIFNLFTTKDSSAAWDEDLLDKFCTELYQQLNDLEACVMQEERVGETPLMNADSILAVKKYFRRITLYLTEKKYSPCAWEVVRAEIMRSLSLSTNLQERLRRKE
For B1, in the data set with vaccinia virus [4], the “protection against vaccinia virus (VV) infection” value is recorded as “did not protect”. Besides, the “protection against vaccinia virus lethal infection (survival)” value in the data set with vaccinia virus [2] is recorded as “ineffective”. Moreover, the weight loss entry in data set [3] is listed as “weight loss seen”.

B2: IFNα1(69-189)R9 (protein)
chain: RRRRRRRRRNQFQKAPAISVLHELIQQIFNLFTTKDSSAAWDEDLLDKFCTELYQQLNDLEACVMQEERVGETPLMNADSILAVKKYFRRITLYLTEKKYSPCAWEVVRAEIMRSLSLSTNLQERLRRKE
For B2, in the data set on EMC virus, the “antiviral activity against EMC virus” value is reported as “possessed antiviral activity”. The “therapeutic efficacy in EAE (mean daily severity of disease)” value in data set [5] was “essentially complete therapeutic efficacy”. The body weight change entry in data set [6] is “gained weight”. For the same molecule, in the data set on lymphocytes, the “Lymphocytes (%)” value was 75 ± 3% and the “% Reduction (lymphocytes)” value amounted to 4%.

B3: IFNα1(69-189) (protein, listed as Homo sapiens)
chain: NQFQKAPAISVLHELIQQIFNLFTTKDSSAAWDEDLLDKFCTELYQQLNDLEACVMQEERVGETPLMNADSILAVKKYFRRITLYLTEKKYSPCAWEVVRAEIMRSLSLSTNLQERLRRKE
Consider B3, for which the “therapeutic efficacy in EAE (mean daily severity of disease)” value in data set [5] was “developed paraplegia”.

B4: IFNβ(100-187)R9 (protein)
chain: RRRRRRRRRWNETIVENLLANVYHQINHLKTVLEEKLEKEDFTRGKLMSSLHLKRYYGRILHYLKAKEYSHCAWTIVRVEILRNFYFINRLTGYLRN
With B4, in the data set on EMC virus, the “antiviral activity against EMC virus” value is given as “possessed antiviral activity”. The body weight change entry in data set [6] was “gained weight”. In addition, in the data set on lymphocytes, the “Lymphocytes (%)” value was 72 ± 5% and the “% Reduction (lymphocytes)” value came to 9%.
